This note sets out measurements from PMC8983682 (Nature Communications, 2022).

This experiment has as its target full-length N1-CA09-WT, membrane-anchored, C-terminal myc tag (Influenza A virus A/California/07/2009 …, UniProt C7FH46, strain). Nature of the experiment: flow cytometry on cells. As to conditions: one partner purified.

B1: CD6 IgG (antibody, V domains shown)
VH: QVKLQESGGGLVQPKGSLKLSCAASGFTFNTYAMNWVRQAPGKGLEWVARIRSKSNNYATFYADSVKDRFTISRDDSQSMLYLQMHNLKTDDTAMYYCVRPSIYYYASGYLDVWGAGTTVTVSS
VL: QIVLSQSPAILSASPGEKVTMTCRTSSSVSYMHWYQQKPGSSPKPWIYATSNLASGVPFRFSGSGSGTSYSLTISRVEAEDAATYYCQQWNSNPPTFGGGTKLEIK
notes: copies: 2 + 2
Turning to B1, the binding result is recorded as “binds”.
